The results in this text go back to paper PMC3756924 (Molecular Biology of the Cell, 2013).

B2: hexahistidine (His6)-Sit4p (enzyme, S. cerevisiae, UniProt P20604 1-311, looked up)
chain: MVSRGPDEWLETIKKCQALTENEMKQLCEMVKELLMEESNIQPVQTPVTVCGDIHGQFHDLLELFRTAGGFPDDINYIFLGDYVDRGYYSLETFTLLMCLKVKYPAKITLVRGNHESRQITQVYGFYEECLNKYGSTTVWKYCCQVFDFLTLAAIIDGKILCVHGGLSPEIRMLDQIRVLSRAQEVPHEGGFSDLLWSDPDNVEAWQVSPRGAGWLFGSKVAREFNHVNGLNLIARAHQLVMEGFKYHFPEKDVVTVWSAPNYCYRCGNVASVMKVDEDLEPTFKIFSAVPDDYIRESTANHNNQRAGYFL

Assay in all cases: pull-down
In assay [1] the target is B2.
In a further assay the target is T1, GST-Lst1p (S. cerevisiae, UniProt P38810 1-929).
T1 sequence (looked up): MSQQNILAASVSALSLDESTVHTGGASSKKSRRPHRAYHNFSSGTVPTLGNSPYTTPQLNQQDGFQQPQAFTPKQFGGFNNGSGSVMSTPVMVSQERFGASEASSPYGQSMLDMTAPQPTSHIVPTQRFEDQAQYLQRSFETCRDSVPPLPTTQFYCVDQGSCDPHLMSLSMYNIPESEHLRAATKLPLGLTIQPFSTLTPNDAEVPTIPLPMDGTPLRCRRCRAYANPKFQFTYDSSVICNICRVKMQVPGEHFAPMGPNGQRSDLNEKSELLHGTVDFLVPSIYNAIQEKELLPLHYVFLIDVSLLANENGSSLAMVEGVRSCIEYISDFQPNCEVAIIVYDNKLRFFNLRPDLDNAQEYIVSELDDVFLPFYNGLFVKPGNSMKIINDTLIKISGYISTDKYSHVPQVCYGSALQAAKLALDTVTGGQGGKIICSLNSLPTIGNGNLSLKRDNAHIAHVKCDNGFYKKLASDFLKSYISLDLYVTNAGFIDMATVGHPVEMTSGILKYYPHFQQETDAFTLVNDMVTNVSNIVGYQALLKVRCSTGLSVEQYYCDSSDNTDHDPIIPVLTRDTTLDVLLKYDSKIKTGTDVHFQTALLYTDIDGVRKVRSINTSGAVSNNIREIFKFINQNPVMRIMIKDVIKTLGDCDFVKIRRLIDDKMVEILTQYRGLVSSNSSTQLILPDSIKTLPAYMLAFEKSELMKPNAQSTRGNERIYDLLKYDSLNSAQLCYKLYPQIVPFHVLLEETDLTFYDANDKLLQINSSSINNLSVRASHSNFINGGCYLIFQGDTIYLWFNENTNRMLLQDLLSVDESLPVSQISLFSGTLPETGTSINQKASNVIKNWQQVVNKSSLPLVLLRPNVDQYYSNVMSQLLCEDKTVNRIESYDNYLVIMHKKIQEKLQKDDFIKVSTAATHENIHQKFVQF

The next assay has as its target T2, GST-Sec23p (S. cerevisiae, UniProt P15303 1-768).
T2 sequence (looked up): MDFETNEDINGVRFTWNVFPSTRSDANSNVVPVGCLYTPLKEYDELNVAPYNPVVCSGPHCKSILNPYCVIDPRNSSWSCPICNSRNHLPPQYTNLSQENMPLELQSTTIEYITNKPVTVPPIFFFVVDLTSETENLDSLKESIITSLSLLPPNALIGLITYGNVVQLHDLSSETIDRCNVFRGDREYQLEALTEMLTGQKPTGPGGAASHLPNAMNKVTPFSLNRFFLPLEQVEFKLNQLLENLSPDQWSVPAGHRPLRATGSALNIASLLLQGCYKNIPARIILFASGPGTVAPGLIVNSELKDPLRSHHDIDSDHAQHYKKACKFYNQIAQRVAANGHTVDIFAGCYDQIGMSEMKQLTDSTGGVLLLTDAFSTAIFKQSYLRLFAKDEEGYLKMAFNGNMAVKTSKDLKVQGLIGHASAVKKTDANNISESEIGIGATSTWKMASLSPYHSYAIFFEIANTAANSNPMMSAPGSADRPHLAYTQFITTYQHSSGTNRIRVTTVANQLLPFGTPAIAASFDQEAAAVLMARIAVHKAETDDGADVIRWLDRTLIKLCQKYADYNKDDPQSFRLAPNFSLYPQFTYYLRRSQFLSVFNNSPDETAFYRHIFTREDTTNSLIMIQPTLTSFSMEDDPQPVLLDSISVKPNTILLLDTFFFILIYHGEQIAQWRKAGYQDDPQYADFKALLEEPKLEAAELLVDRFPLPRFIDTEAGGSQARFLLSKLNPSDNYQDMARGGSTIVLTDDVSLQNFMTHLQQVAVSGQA

The target in the next assay is T3, GST-Sec31p (aa 1–500) (S. cerevisiae, UniProt P38968 1-500).
T3 sequence (looked up): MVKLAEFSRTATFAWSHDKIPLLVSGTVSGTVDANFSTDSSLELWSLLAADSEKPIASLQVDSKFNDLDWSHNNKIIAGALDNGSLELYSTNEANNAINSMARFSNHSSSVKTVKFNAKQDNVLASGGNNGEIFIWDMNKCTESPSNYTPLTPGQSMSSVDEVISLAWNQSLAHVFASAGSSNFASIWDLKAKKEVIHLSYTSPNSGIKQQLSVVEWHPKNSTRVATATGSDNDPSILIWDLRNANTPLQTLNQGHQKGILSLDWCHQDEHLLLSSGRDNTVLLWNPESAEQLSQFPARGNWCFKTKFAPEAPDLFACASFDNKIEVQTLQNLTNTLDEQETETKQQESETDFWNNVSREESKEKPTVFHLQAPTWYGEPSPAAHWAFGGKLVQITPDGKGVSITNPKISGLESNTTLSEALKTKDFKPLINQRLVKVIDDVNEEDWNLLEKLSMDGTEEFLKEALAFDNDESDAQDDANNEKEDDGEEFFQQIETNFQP

Another assay has as its target T4, GST-Sec24p (S. cerevisiae, UniProt P40482 1-926).
T4 sequence (looked up): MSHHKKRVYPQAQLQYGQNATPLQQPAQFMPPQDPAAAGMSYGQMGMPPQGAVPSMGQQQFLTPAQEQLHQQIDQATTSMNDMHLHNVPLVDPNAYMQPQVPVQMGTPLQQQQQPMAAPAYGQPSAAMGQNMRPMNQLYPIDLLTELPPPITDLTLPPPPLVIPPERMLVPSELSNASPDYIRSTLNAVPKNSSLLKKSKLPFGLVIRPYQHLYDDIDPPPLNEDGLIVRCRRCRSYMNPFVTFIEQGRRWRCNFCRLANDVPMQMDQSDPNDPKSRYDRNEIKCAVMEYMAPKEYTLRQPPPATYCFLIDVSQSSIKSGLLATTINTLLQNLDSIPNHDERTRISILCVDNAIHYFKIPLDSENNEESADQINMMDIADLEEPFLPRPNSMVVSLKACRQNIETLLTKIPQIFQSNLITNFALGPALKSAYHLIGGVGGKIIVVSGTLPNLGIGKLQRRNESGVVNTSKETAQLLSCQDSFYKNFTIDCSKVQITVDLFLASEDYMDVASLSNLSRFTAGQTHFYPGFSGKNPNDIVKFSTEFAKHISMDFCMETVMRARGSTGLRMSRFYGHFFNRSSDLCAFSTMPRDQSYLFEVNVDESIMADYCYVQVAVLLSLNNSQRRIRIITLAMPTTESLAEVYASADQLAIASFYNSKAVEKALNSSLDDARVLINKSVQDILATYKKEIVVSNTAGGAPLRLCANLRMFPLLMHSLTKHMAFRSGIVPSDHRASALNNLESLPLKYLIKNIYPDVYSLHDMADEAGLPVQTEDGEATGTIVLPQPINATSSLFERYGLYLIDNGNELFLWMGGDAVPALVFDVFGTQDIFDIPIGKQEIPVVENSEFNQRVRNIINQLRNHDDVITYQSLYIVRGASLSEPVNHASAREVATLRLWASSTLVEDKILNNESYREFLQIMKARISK

B1: GST-Sec31p (aa 1115–1273) (domain or fragment, S. cerevisiae, UniProt P38968 1115-1273, looked up)
chain: RSNKLASIEQNPSQGATYPPTLSSSASPLQPSQPPTLASQVNTSAENVSHEIPADQQPIVDFLKEELARVTPLTPKEYSKQLKDCDKRLKILFYHLEKQDLLTQPTIDCLHDLVALMKEKKYKEAMVIHANIATNHAQEGGNWLTGVKRLIGIAEATLN
Regarding B1, the binding result in assay [1] is recorded as “binds”.
For the molecule B2, the binding result in the assay with GST-Lst1p, with GST-Sec23p, with GST-Sec31p (aa 1–500) and with GST-Sec24p was “binds” in each case.
